{
  "source": "patent US7129072",
  "target": "FGFR1 D2-D3 (residues 142-365 of human FGFR1) (human) (UniProt P11362)",
  "sequence (P11362 149-359 limits assumed)": "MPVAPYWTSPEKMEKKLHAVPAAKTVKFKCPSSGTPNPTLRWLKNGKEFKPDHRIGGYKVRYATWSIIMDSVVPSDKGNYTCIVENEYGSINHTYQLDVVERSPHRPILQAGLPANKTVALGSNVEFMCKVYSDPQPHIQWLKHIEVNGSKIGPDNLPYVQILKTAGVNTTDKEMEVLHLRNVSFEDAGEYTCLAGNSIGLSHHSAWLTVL",
  "test": "calculated from the X-ray crystal structure",
  "data": [
    {"substance": "FGF1 (from UniProt P05230 21-155) (ligand)", "values": [
      {"measurement": "total accessible surface area buried in the complex", "result": 2200, "unit": "Å^2"}
    ]}
  ]
}
